In the supplement of paper PMC10567573:

B1: CDC25B (parent)
chain: FVDILESDLKDDDAVPPGMESLIS
B2: PKD2L1 (parent)
chain: YSGGGYYLDLPGSRQGSAEALRAL

Variants of: B1
Experiment: protein stability index of a GFP-peptide fusion (GPS, HEK-293T) (PSI 1-6); higher = more stable
Conditions: c terminus: a fixed tail appended
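Also: lentivirally expressed fusions sorted by FACS into six bins by GFP to DsRed ratio, PSI derived from sequencing read proportions per bin multiplied by bin number.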

Protein stability index of substitutions, site by site:
P16: V 3.07
D8: N 3.18; Y 2.62; P 2.31; K 2.48
V2: N 4.96; M 4.76; R 4.31; C 3.65; L 3.73
D13: M 2.33; S 2.63; F 2.38; N 2.67; H 2.7; R 2.1
S21: E 3.05; Q 2.83; Y 2.35; K 2.68
S7: E 3.79; L 2.21; Y 2.77; D 3.67
K10: D 2.91; T 3.46; S 2.52; P 3.1; A 2.77; R 2.75; N 2.87
A14: W 2.65; V 3.15; D 3.48; T 3.61
L9: W 2.97; D 3.21
I23: H 3.56; G 3.03; D 3.7; L 3.07; K 2.83; Y 2.69; Q 3.77
F1: G 5.23; A 5
E6: Y 2.33; G 2.31; K 2.84
P17: W 1.81; R 2.19
L5: M 3.57; E 4.46
E20: A 2.77; V 2.66; K 2.74; Q 3.08
S24: D 3.45; C 2.66; F 2.01; M 2.52; L 2.18
G18: F 2.26; D 3.29
I4: T 3.37; D 4.54
D3: L 1.93
L22: W 2.43; A 3.37; I 2.77; P 3.36
V15: M 3.02
M19: N 3.4; L 3.08
D11: L 2.25; W 1.8; S 2.94; A 3
D12: Y 2.69; K 2.78

Variants of: B2
Experiment: as above
Conditions: c terminus: a fixed tail appended

Protein stability index of substitutions, site by site:
A23: I 1.66; W 2.22; C 1.59; M 2.03; R 2.26
G3: V 2.21; A 1.58; W 2.09; Y 1.7; S 1.73; D 2.5; M 2.12; R 2.47; H 2.02; L 2.87
L24: N 2.1; G 2.63; M 1.63; R 2.34; Y 2.12; F 1.99; Q 1.17; V 2.33; S 2.41; W 1.62; K 2.91; I 1.63
G16: A 1.94; N 1.51; K 1.97; S 2.27; P 1.92; V 1.77; Q 2; I 2.3; D 2.02; W 2.5; Y 2.13
D9: I 3.81; P 1.66; G 3.74; L 4.93; K 2.59; Q 1.24; M 3.33; N 2.46; R 2; F 3.62
E19: G 2.02; S 1.49; P 2.03; C 2.27; F 2.33; Q 1.63; T 1.77; H 1.42; M 2.09; W 1.74; I 1.45; V 1.89; Y 2.23
P11: F 2.12; E 1.29; R 3.15; M 2.68; N 1.97; G 3.43
A18: F 1.57; P 1.79; H 1.61; D 2.65; N 1.86; C 2.16; Q 2.15; T 1.35
R22: D 1.26; H 1.92; P 1.78; L 1.36; E 1.86; K 2.08; Q 1.5; C 2.11; V 2.03; A 2.13; N 1.65; G 1.69; Y 2.02
L10: Q 1.27; G 1.56; K 1.73; I 2.33; F 2.09; C 2.31; D 2.02; S 1.46; P 1.9; H 1.58; Y 1.81; T 2.35
S13: A 1.45; M 2.4; F 1.92; E 1.61; L 1.5; T 1.82; R 2.38; V 2.3; Y 1.96; W 1.78
Y6: C 2.75; P 2.42; H 2.16; F 2.25; G 1.84; R 2.64; T 2.75; D 2.57; S 3.28; I 1.79; K 2.66
Y7: F 1.56; R 2.06; P 2.96; T 2.71; D 3.25; M 1.61; E 3.37; V 2.21; G 2.24; L 1.66; H 2.26; N 2.59
G5: Y 1.71; N 1.76; D 2.28; E 2.06; K 2.65; Q 1.39; A 1.14; C 1.25; T 1.96; R 2.67; F 2.17; I 1.33
A20: F 2.64; N 2.02; L 1.72; S 2.2; M 1.81; Q 1.66; V 1.6
S17: K 1.78; C 1.39; L 2.13; W 1.98; T 2; G 3.5; Y 2.03; V 1.61; F 1.98; M 2.3; E 2; P 2.32
Y1: H 3.5; K 3.16; W 2.94; E 3.75; F 2.68; A 3.15; V 2.98; S 3.48; I 2.72; L 3.1; D 4.08; C 2.29; M 2.99; P 3.49
G4: F 2.49; P 2.03; N 1.67; M 2.35; R 2.48; W 2.44; I 1.78; T 2.53
Q15: P 2.03; K 2.5; E 2.16; T 1.21; R 2.27; V 2.99; S 1.83; N 1.94; M 2.81; G 1.47; H 1.28; L 1.74
S2: N 1.84; R 2.51; G 1.45; L 1.4; D 2.45; M 1.92; H 2.88; F 1.93; Q 2.3
G12: H 1.96; Q 1.95; I 1.55; T 1.88; W 2.39; V 2.22; S 2.21; E 2; N 2.36; F 1.57; C 1.24
R14: K 2.56; S 1.57; Y 2; T 2.15; G 2.24; Q 1.55; E 1.75; W 2.36; H 1.84; A 3.28; I 2.55; D 1.82; N 1.63
L8: R 2.08; H 4.24; Y 2.03; G 1.67; N 1.73; D 1.99; P 1.99; E 2.9; Q 2.26; C 1.69; T 3.55
L21: V 1.8; P 2.23; Y 1.91; S 2.27; W 1.29; E 1.36; G 1.89; H 2.05; D 1.98; R 1.25; F 2.09; N 1.99
